What was measured:
Assay in all cases: cell-based or functional assay
NEK7(h) (human) = NEK7(h) (human) (UniProt Q8TDX7)
PrKX(h) (human) = biological target: T1, PrKX(h) (human) (UniProt P51817)
T1 sequence (looked up): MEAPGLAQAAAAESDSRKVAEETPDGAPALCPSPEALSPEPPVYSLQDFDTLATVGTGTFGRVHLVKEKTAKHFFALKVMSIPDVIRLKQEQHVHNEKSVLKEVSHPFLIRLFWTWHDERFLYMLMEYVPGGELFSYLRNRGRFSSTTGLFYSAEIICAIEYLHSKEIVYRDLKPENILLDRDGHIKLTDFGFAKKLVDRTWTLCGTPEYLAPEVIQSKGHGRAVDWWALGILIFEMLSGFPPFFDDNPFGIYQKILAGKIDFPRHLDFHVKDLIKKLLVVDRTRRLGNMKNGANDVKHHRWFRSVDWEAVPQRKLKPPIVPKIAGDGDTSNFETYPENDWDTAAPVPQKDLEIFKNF

MLK1(h) (human) = MLK1(h) (human) (UniProt P80192)
CHK2(I157T)(h) (human) = CHK2(I157T)(h) (human) (UniProt O96017)
Tie2(h) (human) = Tie2(h) (human) (UniProt Q02763)
IRAK1(h) (human) = IRAK1(h) (human) (UniProt P51617)
Abl(Q252H)(h) (human) = Abl(Q252H)(h) (human) (UniProt P00519)
PKCβI(h) (human) = PKCβI(h) (human) (UniProt P05771)
DYRK2(h) (human) = DYRK2(h) (human) (UniProt Q92630)
IRR(h) (human) = IRR(h) (human) (UniProt P14616)
EphB1(h) (human) = EphB1(h) (human) (UniProt P54762)
MAPK2(h) (human) = MAPK2(h) (human) (UniProt P28482)
Flt1(h) (human) = biological target: T2, Flt1(h) (human) (UniProt P17948)
T2 sequence (looked up): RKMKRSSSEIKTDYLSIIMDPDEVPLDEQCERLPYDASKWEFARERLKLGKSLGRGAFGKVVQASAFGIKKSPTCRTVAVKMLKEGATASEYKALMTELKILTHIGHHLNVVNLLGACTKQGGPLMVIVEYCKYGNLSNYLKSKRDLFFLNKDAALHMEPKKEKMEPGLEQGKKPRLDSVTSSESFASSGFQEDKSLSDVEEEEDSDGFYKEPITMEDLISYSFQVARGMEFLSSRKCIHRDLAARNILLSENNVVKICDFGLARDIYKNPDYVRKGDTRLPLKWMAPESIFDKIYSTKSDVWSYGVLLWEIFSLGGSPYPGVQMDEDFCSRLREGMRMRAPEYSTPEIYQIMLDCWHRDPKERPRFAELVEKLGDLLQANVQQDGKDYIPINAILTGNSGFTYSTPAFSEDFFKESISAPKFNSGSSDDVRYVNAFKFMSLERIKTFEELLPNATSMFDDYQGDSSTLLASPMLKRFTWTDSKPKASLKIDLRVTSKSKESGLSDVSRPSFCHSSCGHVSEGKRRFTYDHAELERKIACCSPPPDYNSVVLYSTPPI

VRK2(h) (human) = VRK2(h) (human) (UniProt Q86Y07)
Syk(h) (human) = Syk(h) (human) (UniProt P43405)
CHK1(h) (human) = biological target: T3, CHK1(h) (human) (UniProt O14757)
T3 sequence (looked up): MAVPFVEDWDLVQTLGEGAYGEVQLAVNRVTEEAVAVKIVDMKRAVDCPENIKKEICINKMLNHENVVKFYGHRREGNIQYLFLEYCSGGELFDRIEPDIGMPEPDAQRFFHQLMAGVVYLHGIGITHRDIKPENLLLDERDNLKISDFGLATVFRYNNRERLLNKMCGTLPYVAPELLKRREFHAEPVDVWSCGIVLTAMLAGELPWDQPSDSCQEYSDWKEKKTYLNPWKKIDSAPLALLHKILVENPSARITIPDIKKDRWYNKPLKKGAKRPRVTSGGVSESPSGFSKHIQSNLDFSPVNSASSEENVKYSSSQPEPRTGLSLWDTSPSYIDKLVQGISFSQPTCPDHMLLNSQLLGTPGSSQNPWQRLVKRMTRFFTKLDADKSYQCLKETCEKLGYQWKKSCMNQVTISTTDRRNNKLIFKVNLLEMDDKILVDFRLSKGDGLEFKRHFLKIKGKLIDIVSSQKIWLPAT

ROCK-I(h) (human) = ROCK-I(h) (human) (UniProt Q13464)
Flt3(D835Y)(h) (human) = biological target: T4, Flt3(D835Y)(h) (human) (UniProt P36888)
T4 sequence (looked up): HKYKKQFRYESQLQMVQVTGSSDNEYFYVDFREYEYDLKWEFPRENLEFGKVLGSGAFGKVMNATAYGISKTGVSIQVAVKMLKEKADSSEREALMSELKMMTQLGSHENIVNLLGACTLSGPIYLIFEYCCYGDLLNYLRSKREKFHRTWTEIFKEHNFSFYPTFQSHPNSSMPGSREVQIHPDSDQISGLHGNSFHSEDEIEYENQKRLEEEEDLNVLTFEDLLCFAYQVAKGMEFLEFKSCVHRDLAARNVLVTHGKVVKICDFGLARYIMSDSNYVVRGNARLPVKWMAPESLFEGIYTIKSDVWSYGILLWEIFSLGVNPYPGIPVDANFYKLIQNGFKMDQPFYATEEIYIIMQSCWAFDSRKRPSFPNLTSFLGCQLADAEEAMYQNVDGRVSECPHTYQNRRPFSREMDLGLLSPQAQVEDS

Met(Y1248C)(h) (human) = Met(Y1248C)(h) (human) (UniProt P08581)
Fes(h) (human) = Fes(h) (human) (UniProt P07332)
MST3(h) (human) = MST3(h) (human) (UniProt Q9Y6E0)
ErbB4(h) (human) = ErbB4(h) (human) (UniProt Q15303)
ErbB4(h) (human), sequence (Q15303 706-991 limits assumed): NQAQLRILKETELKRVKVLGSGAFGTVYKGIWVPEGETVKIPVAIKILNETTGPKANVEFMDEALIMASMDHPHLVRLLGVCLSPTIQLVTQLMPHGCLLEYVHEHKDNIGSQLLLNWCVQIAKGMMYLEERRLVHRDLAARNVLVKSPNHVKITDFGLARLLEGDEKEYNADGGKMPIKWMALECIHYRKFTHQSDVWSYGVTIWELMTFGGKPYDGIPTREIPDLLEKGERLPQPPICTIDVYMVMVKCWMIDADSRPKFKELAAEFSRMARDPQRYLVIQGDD

Tie2(h) (human), sequence (Q02763 771-1124 limits assumed): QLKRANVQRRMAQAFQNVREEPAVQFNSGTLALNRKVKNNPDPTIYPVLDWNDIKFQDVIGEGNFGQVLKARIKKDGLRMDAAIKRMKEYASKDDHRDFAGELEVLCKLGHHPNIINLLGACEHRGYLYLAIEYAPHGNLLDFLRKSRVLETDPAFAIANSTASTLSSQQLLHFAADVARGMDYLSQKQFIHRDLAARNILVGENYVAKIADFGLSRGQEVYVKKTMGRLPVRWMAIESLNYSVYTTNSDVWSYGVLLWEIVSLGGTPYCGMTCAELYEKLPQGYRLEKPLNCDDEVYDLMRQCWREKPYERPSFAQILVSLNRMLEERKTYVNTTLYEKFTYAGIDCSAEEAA
MAPK2(h) (human), sequence (P28482 whole entry): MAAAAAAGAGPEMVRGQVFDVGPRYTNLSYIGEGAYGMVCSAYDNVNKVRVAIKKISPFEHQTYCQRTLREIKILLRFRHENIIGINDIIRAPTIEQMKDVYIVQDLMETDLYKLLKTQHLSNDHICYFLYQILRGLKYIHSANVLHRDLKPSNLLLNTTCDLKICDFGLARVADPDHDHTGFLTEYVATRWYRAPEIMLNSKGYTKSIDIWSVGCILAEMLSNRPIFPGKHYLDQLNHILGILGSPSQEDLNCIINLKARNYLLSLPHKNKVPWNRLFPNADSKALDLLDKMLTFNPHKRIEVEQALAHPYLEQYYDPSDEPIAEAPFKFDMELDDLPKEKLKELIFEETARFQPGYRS
IRR(h) (human), sequence (P14616 944-1297 limits assumed): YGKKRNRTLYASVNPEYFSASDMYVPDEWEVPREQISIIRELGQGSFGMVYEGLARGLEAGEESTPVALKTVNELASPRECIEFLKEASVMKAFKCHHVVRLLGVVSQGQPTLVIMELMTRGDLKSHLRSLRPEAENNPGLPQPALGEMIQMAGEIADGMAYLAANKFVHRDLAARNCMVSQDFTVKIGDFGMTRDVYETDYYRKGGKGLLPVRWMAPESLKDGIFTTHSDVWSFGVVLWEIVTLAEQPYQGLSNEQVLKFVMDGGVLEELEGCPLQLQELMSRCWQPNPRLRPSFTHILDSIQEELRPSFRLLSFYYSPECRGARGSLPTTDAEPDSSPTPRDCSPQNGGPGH
VRK2(h) (human), sequence (Q86Y07 whole entry): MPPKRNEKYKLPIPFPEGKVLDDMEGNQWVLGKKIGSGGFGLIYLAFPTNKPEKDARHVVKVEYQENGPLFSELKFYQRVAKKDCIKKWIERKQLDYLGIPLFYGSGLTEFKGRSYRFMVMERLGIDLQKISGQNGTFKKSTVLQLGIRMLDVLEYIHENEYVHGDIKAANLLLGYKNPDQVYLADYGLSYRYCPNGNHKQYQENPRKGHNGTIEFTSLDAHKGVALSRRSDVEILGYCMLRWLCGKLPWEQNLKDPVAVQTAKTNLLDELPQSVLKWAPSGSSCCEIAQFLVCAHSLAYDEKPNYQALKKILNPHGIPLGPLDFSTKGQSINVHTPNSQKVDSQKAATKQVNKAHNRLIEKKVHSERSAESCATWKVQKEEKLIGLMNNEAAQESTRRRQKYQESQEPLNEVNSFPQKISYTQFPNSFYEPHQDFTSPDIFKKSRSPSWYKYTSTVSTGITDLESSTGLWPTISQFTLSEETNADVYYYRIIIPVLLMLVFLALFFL
Abl(Q252H)(h) (human), sequence (P00519 27-1130 Q252H limits assumed): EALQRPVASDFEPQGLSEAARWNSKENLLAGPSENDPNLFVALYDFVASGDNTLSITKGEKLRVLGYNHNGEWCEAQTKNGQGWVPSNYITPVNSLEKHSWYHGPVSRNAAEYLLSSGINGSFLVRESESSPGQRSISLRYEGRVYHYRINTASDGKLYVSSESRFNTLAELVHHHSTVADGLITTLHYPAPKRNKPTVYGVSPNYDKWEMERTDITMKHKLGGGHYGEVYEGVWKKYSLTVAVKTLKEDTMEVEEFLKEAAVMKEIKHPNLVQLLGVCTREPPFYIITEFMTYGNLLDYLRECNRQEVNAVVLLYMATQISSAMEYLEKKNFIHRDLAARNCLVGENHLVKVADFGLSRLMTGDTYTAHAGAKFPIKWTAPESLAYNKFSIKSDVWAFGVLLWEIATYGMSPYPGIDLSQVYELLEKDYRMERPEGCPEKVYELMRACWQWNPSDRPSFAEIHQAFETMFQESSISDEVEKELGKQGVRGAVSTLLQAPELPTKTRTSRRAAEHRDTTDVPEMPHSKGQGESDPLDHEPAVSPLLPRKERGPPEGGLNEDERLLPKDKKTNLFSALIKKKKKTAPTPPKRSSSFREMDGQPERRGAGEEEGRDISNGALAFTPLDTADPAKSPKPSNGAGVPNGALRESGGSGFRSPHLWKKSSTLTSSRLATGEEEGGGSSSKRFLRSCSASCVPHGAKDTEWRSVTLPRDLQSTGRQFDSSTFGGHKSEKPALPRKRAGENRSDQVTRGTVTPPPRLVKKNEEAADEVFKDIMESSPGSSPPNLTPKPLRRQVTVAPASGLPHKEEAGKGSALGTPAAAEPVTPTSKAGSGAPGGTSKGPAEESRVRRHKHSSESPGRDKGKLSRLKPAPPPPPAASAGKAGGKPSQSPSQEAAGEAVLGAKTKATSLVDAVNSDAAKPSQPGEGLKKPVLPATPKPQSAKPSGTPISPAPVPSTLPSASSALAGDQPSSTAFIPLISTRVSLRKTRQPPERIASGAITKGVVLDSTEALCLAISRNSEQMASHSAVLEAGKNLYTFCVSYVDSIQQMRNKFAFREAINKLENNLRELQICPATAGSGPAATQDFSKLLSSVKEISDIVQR
CHK2(I157T)(h) (human), sequence (O96017 5-543 I157T limits assumed): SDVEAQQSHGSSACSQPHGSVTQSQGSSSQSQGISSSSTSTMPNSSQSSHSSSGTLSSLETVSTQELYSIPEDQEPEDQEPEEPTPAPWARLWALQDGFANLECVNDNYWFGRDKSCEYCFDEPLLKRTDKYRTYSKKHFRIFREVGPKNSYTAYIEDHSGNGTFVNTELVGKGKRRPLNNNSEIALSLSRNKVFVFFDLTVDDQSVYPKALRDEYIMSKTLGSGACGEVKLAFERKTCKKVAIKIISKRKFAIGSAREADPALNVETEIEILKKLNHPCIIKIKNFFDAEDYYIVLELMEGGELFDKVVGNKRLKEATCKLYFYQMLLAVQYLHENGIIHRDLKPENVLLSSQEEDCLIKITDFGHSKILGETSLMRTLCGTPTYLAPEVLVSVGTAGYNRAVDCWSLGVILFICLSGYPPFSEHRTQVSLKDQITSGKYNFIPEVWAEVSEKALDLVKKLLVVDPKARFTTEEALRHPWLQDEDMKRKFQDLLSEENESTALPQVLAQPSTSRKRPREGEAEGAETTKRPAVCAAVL
EphB1(h) (human), sequence (P54762 564-984 limits assumed): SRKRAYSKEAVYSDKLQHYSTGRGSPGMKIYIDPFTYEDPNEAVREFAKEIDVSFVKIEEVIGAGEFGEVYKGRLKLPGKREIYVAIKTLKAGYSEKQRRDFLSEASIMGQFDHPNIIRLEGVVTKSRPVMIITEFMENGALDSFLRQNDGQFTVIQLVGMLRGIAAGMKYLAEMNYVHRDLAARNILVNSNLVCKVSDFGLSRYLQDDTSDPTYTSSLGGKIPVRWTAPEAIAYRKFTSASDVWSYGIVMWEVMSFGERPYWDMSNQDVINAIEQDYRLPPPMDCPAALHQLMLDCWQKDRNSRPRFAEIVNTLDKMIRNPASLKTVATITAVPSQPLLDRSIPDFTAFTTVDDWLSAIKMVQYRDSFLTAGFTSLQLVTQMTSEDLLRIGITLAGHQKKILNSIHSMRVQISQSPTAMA

Row | % activity at 100 µM (NEK7(h) (human)) [%] | % activity at 100 µM (PrKX(h) (human)) [%] | % activity at 100 µM (MLK1(h) (human)) [%] | % activity at 100 µM (CHK2(I157T)(h) (human)) [%] | % activity at 100 µM (Tie2(h) (human)) [%] | % activity at 100 µM (IRAK1(h) (human)) [%] | % activity at 100 µM (Abl(Q252H)(h) (human)) [%] | % activity at 100 µM (PKCβI(h) (human)) [%] | % activity at 100 µM (DYRK2(h) (human)) [%] | % activity at 100 µM (IRR(h) (human)) [%] | % activity at 100 µM (EphB1(h) (human)) [%] | % activity at 100 µM (MAPK2(h) (human)) [%] | % activity at 100 µM (Flt1(h) (human)) [%] | % activity at 100 µM (VRK2(h) (human)) [%] | % activity at 100 µM (Syk(h) (human)) [%] | % activity at 100 µM (CHK1(h) (human)) [%] | % activity at 100 µM (ROCK-I(h) (human)) [%] | % activity at 100 µM (Flt3(D835Y)(h) (human)) [%] | % activity at 100 µM (Met(Y1248C)(h) (human)) [%] | % activity at 100 µM (Fes(h) (human)) [%] | Substance | also measured
1 | 84 | 61 | 40 | 43 | 26 | 95 | 82 | 78 | 155 | 8 | 44 | 98 | 69 | 161 | 24 | 91 | 79 | 80 | 84 | 20 | MMI-0300 (peptide) | % activity at 100 µM (MST3(h) (human)): 45%; % activity at 100 µM (ErbB4(h) (human)): 40%
2 | 87 | 76 | 33 | 41 | 21 | 93 | 98 | 78 | 195 | 8 | 58 | 93 | 48 | 185 | 9 | 87 | 73 | 71 | 36 | 16 | MMI-0400 (peptide) | % activity at 100 µM (MST3(h) (human)): 36%; % activity at 100 µM (ErbB4(h) (human)): 0%
3 | 89 | 57 | 43 | 3 | 22 | 5 | 40 | 1 | 127 | 10 | 37 | 60 | 27 | 169 | 5 | 65 | 17 | 65 | 73 | 23 | MMI-0500 (peptide) | % activity at 100 µM (MST3(h) (human)): 4%; % activity at 100 µM (ErbB4(h) (human)): 2%
